Measured values reported in US20230038638A1, “COMPLEMENT FACTOR I-RELATED COMPOSITIONS AND METHODS” (published 2023).

Key:
[1] = biological target: T1, human C4b (human) (UniProt P0C0L4)
T1 sequence: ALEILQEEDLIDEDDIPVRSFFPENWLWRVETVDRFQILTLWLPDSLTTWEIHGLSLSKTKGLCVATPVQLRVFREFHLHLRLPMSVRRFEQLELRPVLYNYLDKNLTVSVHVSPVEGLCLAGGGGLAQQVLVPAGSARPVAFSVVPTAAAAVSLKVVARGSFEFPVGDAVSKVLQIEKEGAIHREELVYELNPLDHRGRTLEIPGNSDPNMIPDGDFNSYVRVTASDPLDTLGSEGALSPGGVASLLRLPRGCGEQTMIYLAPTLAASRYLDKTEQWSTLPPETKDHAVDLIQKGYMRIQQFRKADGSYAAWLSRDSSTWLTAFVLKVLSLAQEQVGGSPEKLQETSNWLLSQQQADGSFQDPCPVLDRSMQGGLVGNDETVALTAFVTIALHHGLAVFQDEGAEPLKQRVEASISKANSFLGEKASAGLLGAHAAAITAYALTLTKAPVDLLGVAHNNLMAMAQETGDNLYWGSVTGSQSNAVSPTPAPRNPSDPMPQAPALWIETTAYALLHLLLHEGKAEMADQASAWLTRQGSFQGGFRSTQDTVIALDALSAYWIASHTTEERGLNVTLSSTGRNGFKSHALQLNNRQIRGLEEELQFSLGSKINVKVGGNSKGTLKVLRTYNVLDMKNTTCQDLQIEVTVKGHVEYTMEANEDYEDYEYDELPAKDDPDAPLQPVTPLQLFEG

[2] = biological target: soluble human C3b (human) (UniProt P01024)

| C4b Screen Ref Fold (fold of CFI-HSA wild type) [1] | iC3b Screen Ref Fold (fold of CFI-HSA wild type) [2] | C4b Screen Ref Fold (fold of reference) [1] | iC3b Screen Ref Fold (fold of reference) [2] | Substance |
| --- | --- | --- | --- | --- |
| 0.05 | 0.01 | – | – | CFI-HSA variant Y408M; E530F; F537K; K504R (enzyme) |
| – | – | 0.69 | 0.39 | CFI-HSA variant K418G (enzyme) |
| -0.02 | 0.02 | – | – | CFI-HSA variant H383G (enzyme) |
| – | – | 0.4 | 1.21 | CFI-HSA variant P558G (enzyme) |
| 0.04 | -0.02 | – | – | CFI-HSA H362T; V463S; R456I; D459W; S343K (enzyme) |
| 4.83 | 1.51 | – | – | CFI-HSA Y408L; E461Q; F464Y (enzyme) |
| 1.13 | 2.21 | – | – | CFI-HSA D425S (enzyme) |
| 3.45 | 0.07 | – | – | CFI-HSA K504D; Y408L; N531G (enzyme) |
| 1.24 | 0.37 | – | – | CFI-HSA P535Q (enzyme) |
| 3.36 | 0.88 | – | – | CFI-HSA K534N (enzyme) |
| 6.36 | 1.11 | – | – | CFI-HSA E461Q; F464Y (enzyme) |
| 0.26 | 0 | – | – | CFI-HSA H362T; V463S; R456I; D459W; S343R (enzyme) |
| 2.93 | 1.15 | – | – | CFI-HSA variant T377G; Y408M; N422K; E457G; E461Q; E530F; N531G (enzyme) |
| 0.31 | 0 | – | – | CFI-HSA D506H (enzyme) |
| 0.04 | -0.01 | – | – | CFI-HSA Y408L; N531G; E457G; E461Q; R462K; F464Y; S507A (enzyme) |
| – | – | 0.68 | 0.75 | CFI-HSA variant G406A; Y408L (enzyme) |
| 0.38 | 1.18 | – | – | CFI-HSA variant F537K; P558S (enzyme) |
| – | – | 2.62 | 0.95 | CFI-HSA variant E461F (enzyme) |
| 3.18 | 0.36 | – | – | CFI-HSA variant R557A; N531M; Y403F; K504Y; E457N; E461Q (enzyme) |
| 1.38 | 1.86 | – | – | CFI-HSA D425I (enzyme) |
| 3.2 | 0.36 | – | – | CFI-HSA variant R557A; N531M; Y403F; K504Y; E457N; E461V (enzyme) |
| 0.08 | 1.49 | – | – | CFI-HSA variant D425K; Y408M; F537K; K504R; P558S (enzyme) |
| 0.03 | -0.03 | – | – | CFI-HSA variant N422K; S507A (enzyme) |
| – | – | 0.26 | -0.01 | CFI-HSA variant W381G; P384A; V390G (enzyme) |

Second part, the substance before the results:

| Substance | C4b Screen Ref Fold (fold of CFI-HSA wild type) [1] | iC3b Screen Ref Fold (fold of CFI-HSA wild type) [2] | C4b Screen Ref Fold (fold of reference) [1] | iC3b Screen Ref Fold (fold of reference) [2] |
| --- | --- | --- | --- | --- |
| CFI-HSA D425H (enzyme) | 1.79 | 1.75 | – | – |
| CFI-HSA variant Y408F; S507A (enzyme) | 0.07 | -0.02 | – | – |
| CFI-HSA P535W (enzyme) | 0.14 | 0.29 | – | – |
| CFI-HSA E461Q; R462K (enzyme) | 4.69 | 1.23 | – | – |
| CFI-HSA variant R557A; S507A (enzyme) | 0.08 | -0.02 | – | – |
| CFI-HSA K534W (enzyme) | 2.19 | 0.81 | – | – |
| CFI-HSA F464A (enzyme) | -0.01 | 0.02 | – | – |
| CFI-HSA variant V390G (enzyme) | – | – | 0.5 | 0.35 |
| CFI-HSA variant N52Q; N159Q (enzyme) | 0.56 | 1.39 | – | – |
| CFI-HSA variant R462G (enzyme) | 0.25 | 0 | – | – |
| CFI-HSA variant E530F; F537K (enzyme) | 0 | 0.03 | – | – |
| CFI-HSA variant N531Y (enzyme) | – | – | 2.94 | 0.91 |
| CFI-HSA H362T; R456I; D459W; S343R (enzyme) | 0.13 | -0.04 | – | – |
| CFI-HSA variant E416A; E457G; E461Q; R462K; F464Y; N531G (enzyme) | 3.68 | 3.21 | – | – |
| CFI-HSA N531G; E461Q; R462K; F464Y (enzyme) | 6.37 | 1.54 | – | – |
| CFI-HSA variant F559L (enzyme) | – | – | 0.73 | 1.54 |
| CFI-HSA variant N531T (enzyme) | – | – | 0.31 | 0.19 |
| CFI-HSA P535N (enzyme) | 0.33 | 0.08 | – | – |
| CFI-HSA fusion WT; GGSSGG (SEQ ID NO: 6); fH(ccp1); CR1(ccp16); fH(ccp3); fH(ccp4) (from UniProt P17927) (enzyme) | – | – | 0.59 | 0 |
| CFI-HSA T346R; Y408L; K504E; E530R; N531G (enzyme) | 0.1 | 0.67 | – | – |
| CFI-HSA K534P (enzyme) | 0.11 | 0 | – | – |

| Substance | C4b Screen Ref Fold (fold of CFI-HSA wild type) [1] | iC3b Screen Ref Fold (fold of CFI-HSA wild type) [2] | C4b Screen Ref Fold (fold of reference) [1] | iC3b Screen Ref Fold (fold of reference) [2] |
| --- | --- | --- | --- | --- |
| CFI-HSA F464P (enzyme) | 0.15 | -0.01 | – | – |
| CFI-HSA variant Y408M; S507A (enzyme) | -0.02 | -0.04 | – | – |
| CFI-HSA-FH_CCP1-4 fusion, Y408L; N531G; E457G; E461Q; R462K; F464Y; GGSSGG (SEQ ID NO: 6); CCP_1-4 (enzyme) | – | – | 1.28 | 0.04 |
| CFI-HSA variant Q409G (enzyme) | – | – | 0.36 | 0.33 |
| CFI-HSA N531G; E457G; F464Y (enzyme) | 6.55 | 1.24 | – | – |
| CFI-HSA variant V463G (enzyme) | 0.08 | 0.09 | – | – |
| CFI-HSA P535T (enzyme) | 0.4 | 0.17 | – | – |
| CFI-HSA H362T; V463S; R456F; D459W; S343R (enzyme) | 0.3 | -0.01 | – | – |
| CFI-HSA D506S (enzyme) | -0.02 | 0 | – | – |
| CFI-HSA variant Q409Y (enzyme) | – | – | 0.29 | -0.01 |
| CFI-HSA L307A (enzyme) | 4.05 | 0.73 | – | – |
| CFI-HSA S507A; GGSSGG (SEQ ID NO: 6); CCP_1-4 (enzyme) | 0.43 | 0 | – | – |
| CFI-HSA N531G; E461Q; F464Y (enzyme) | 6.83 | 1.76 | – | – |
| CFI-HSA F464I (enzyme) | 0.09 | 0.01 | – | – |
| CFI-HSA T407G (enzyme) | 0.11 | 0.59 | – | – |
| CFI-HSA P535V (enzyme) | 1.29 | 0.57 | – | – |
| CFI-HSA Y408L; E461Q; R462K; F464Y (enzyme) | 2.43 | 0.74 | – | – |
| CFI-HSA variant E461G (enzyme) | – | – | 0.31 | 0.94 |
| CFI-HSA Y408L; E461Q (enzyme) | 4.44 | 1.03 | – | – |
| CFI-HSA E461Q; R462K; F464Y (enzyme) | 4.92 | 0.59 | – | – |
| CFI-HSA K534Y (enzyme) | 1.39 | 1.42 | – | – |
